Results: patent US9988614
Residue numbers refer to the chain shown, from its start.

Legend:
[1] = system: T1, BbsI P442A (subunit B variant) P442A (subunit B) (Brevibacillus laterosporus); test: cleavage_in_vitro; conditions: NEB4 buffer, relative activity 1; FI>=120 in NEB1 (1/4), >=32 in NEB2 (1/16), >=2 in NEB3 (1/256); reduced star activity
T1 sequence 1: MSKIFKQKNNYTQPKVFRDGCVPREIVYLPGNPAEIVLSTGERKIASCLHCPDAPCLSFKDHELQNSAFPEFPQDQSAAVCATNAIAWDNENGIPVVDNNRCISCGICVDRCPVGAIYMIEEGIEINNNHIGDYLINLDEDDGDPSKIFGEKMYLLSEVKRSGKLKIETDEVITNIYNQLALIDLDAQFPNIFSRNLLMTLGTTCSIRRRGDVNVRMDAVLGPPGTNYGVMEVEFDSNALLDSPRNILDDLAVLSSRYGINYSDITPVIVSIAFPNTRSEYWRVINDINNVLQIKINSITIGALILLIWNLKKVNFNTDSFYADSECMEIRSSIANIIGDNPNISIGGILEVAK
T1 sequence 2: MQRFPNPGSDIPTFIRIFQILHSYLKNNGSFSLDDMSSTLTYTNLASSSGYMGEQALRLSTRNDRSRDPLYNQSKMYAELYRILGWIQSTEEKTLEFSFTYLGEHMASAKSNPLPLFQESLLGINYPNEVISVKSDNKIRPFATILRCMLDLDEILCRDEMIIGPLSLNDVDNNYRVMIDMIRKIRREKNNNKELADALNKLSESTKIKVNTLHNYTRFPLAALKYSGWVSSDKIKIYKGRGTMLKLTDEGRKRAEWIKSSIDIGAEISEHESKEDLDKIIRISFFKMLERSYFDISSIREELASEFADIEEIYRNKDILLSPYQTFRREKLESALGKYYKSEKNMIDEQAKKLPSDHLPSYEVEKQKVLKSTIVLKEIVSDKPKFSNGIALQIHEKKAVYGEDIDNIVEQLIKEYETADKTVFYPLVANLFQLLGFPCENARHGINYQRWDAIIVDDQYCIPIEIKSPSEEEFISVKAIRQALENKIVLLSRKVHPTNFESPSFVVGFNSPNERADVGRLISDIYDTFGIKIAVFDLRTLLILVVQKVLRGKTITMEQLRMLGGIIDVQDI

[2] = system: T2, BbsI wild type (subunits A and B) (Brevibacillus laterosporus); test: cleavage_in_vitro; conditions: NEB4 buffer, relative activity 1; FI=32 in NEB1 (1/2), 120 in NEB2 (1), 64 in NEB3 (1/4); substrate sequence not stated
T2 sequence 1: T1 sequence 1
T2 sequence 2: T1 sequence 2 with A442P

DNA substrate containing BbsI recognition site
activity (fidelity index) [1]: > 500
activity (fidelity index) [2]: 64
